From paper PMC8810680 (Nature chemical biology, 2021) come the findings set out here.

“And” between values parts separate entries of the source, which are not always exact repeats. Identical values can stand only once.

The target of experiment [1] is recombinant 6X His-tagged GudB (B. subtilis). The experiment in a line: cryo-EM structure.
For experiment [2], the target named is glutamate dehydrogenase GudB (untagged, in B. subtilis NCIB 3610) (B. subtilis (endogenous in strain NCIB 3610)). The experiment in a line: cryo-EM structure.
glutamate dehydrogenase GudB (untagged, in B. subtilis NCIB 3610) (B. subtilis (endogenous in strain NCIB 3610)), sequence (P50735 whole entry): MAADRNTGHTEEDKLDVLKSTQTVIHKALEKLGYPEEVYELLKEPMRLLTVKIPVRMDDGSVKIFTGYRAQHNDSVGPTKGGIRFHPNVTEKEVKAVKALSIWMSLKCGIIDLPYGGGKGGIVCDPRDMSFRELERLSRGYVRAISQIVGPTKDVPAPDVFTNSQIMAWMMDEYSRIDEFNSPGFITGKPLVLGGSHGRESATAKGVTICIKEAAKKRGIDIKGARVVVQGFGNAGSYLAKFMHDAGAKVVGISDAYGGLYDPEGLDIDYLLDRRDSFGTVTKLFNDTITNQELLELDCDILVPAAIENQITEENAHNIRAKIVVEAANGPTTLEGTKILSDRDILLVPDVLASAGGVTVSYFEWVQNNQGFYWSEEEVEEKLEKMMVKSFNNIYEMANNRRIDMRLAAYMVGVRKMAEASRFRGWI
For experiment [3], the target named is recombinant 6X His-tagged GudB (B. subtilis). The experiment in a line: native MS.
Experiment [4] addresses glutamate dehydrogenase GudB (untagged, in B. subtilis NCIB 3610) (B. subtilis (endogenous in strain NCIB 3610)). The experiment in a line: native MS.
Experiment [5] has as its target TwinStrep-tagged GltB (B. subtilis) (UniProt O34399). The experiment in a line: mass photometry.
The target in the next experiment is GudB6-GltA2B2 (Bacillus subtilis, UniProt O34399+P39812). In words: cryo-EM structure, […] A. The experiment is classed as binding. The conditions noted are these: co-purified.
GudB6-GltA2B2, sequence (P39812 22-1520): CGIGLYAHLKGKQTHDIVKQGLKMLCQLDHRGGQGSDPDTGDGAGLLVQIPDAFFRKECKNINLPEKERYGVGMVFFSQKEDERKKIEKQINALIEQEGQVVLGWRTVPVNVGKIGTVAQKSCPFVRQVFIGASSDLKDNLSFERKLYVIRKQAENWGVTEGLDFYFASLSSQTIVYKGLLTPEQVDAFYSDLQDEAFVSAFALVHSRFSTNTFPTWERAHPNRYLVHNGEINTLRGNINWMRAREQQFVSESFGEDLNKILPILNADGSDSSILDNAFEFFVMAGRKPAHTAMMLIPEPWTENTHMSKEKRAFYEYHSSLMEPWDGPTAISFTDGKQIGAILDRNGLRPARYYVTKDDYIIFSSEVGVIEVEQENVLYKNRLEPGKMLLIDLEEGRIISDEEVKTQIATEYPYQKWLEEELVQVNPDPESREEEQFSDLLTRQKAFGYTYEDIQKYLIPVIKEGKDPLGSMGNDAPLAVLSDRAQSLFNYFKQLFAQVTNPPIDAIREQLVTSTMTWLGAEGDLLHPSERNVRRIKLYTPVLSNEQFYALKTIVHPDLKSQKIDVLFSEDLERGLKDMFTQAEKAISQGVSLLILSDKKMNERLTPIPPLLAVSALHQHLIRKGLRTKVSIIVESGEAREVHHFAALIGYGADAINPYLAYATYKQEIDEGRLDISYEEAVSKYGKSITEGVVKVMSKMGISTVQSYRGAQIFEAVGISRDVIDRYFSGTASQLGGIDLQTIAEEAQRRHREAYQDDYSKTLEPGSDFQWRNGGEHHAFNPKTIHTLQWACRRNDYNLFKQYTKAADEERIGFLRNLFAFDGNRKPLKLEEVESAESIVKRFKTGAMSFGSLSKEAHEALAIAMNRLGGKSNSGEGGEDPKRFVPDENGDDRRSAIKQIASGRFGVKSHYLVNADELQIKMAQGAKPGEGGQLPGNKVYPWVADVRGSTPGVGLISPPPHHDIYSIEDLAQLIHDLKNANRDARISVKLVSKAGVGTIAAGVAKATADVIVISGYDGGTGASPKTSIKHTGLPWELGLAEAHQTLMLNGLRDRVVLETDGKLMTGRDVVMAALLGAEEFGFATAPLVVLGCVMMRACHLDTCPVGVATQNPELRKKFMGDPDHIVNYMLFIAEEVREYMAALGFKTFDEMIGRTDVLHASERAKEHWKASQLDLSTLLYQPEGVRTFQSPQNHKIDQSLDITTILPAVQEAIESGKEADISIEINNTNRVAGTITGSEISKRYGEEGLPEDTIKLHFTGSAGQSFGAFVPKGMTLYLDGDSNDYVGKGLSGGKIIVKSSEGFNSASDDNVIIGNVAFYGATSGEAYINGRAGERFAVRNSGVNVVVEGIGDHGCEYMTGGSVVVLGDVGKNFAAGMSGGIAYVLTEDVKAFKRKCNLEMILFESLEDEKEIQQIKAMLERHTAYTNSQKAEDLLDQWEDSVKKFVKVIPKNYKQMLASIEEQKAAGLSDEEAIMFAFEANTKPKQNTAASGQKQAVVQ
GudB6-GltA2B2, sequence (O34399 whole entry): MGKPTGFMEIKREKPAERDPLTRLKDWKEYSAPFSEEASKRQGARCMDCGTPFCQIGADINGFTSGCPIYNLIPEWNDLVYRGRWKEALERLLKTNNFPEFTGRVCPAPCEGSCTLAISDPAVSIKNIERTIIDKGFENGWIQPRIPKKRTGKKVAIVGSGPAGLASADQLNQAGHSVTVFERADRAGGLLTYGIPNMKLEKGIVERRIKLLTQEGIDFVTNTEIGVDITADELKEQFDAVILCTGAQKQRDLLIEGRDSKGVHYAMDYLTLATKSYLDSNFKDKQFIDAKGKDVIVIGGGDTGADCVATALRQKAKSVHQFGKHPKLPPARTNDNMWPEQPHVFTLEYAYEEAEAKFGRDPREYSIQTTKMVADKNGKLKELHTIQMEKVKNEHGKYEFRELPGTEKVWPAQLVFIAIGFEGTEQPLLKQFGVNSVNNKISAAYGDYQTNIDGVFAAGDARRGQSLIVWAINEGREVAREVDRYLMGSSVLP
GudB6-GltA2B2, sequence (A0A0C3GZC9 1-424 partner): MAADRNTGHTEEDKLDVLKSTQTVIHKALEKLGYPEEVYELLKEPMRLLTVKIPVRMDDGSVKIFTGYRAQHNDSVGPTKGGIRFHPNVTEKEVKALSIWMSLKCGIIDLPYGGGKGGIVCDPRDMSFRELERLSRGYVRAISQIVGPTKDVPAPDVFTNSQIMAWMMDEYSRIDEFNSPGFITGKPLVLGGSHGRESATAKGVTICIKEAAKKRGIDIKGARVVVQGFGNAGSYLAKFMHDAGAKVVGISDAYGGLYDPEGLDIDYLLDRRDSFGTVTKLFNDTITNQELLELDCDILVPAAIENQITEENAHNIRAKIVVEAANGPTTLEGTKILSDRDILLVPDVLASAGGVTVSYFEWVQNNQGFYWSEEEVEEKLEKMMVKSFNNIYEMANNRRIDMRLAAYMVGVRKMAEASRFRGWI
Experiment [6] concerns the target recombinant Strep-tagged GudB (B. subtilis). In words: native MS.

The stoichiometry N is a count of units in the complex or per binding partner.

TwinStrep-tagged GltB (B. subtilis), sequence (O34399 whole entry): as the sequence (O34399 whole entry) above
recombinant 6X His-tagged GudB (B. subtilis), sequence (P50735 whole entry): as the sequence (P50735 whole entry) above
glutamate dehydrogenase GudB (untagged, in B. subtilis NCIB 3610) (enzyme), sequence (P50735 whole entry): as above
recombinant Strep-tagged GudB (enzyme), sequence (P50735 whole entry): as above
recombinant 6X His-tagged GudB (enzyme), sequence (P50735 whole entry): as above

In the case of “glutamate synthase subunit GltA (from UniProt P39812 1-1520) (enzyme)”, the stoichiometry N (GltAB heterodimers per GudB hexamer) in experiment [1] was 2 to 4; in experiment [2], 6; in experiment [3] it was 3 and 6; in experiment [4], 6. Also, the percent of counts as GltAB, no ligand in experiment [5] is 5 % of counts. Further, the percent of counts as GltAB, with AKG in experiment [5] is 12 % of counts. The percent of counts as GltAB, with AKG and NADPH in experiment [5] is 16 % of counts.
With `[S]12[Fe]3[S]4[Fe]1[S]1[Fe]2[S]3[Fe]41` [4Fe-4S cluster], the “cryo-EM structure, 2.4 A” value at GudB6-GltA2B2 (two clusters, site in GltB) is recorded as “unambiguous assignment of two 4Fe-4S clusters in GltB”.
Compound “glutamate dehydrogenase GudB (untagged, in B. subtilis NCIB 3610) (enzyme)” had a stoichiometry N in experiment [2] of 6.
Turning to `Cc1cc2nc3c(=O)[nH]c(=O)nc-3n(C[C@H](O)[C@H](O)[C@H](O)COP(=O)(O)O)c2cc1C` [FMN], on GudB6-GltA2B2 (site in GltA), the “cryo-EM structure, 2.4 A” value is “a 3Fe-4S clusters and FMN in GltA”.
Take `Cc1cc2nc3c(=O)[nH]c(=O)nc-3n(C[C@H](O)[C@H](O)[C@H](O)COP(=O)(O)OP(=O)(O)OC[C@H]3O[C@@H](n4cnc5c(N)ncnc54)[C@H](O)[C@@H]3O)c2cc1C` [FAD]: the “cryo-EM structure, 2.4 A” value on GudB6-GltA2B2 (listed among GltAB cofactors in the figure legend only) is “The co-factors in GltAB: FAD, two 4Fe-4S clusters (SF4), 3Fe-4S cluster (F3S) and FMN”.
With recombinant Strep-tagged GudB (enzyme), the stoichiometry N in experiment [6] came out at 6.
As to recombinant 6X His-tagged GudB (enzyme), in experiment [1], the stoichiometry N came out at 6.
